Measurements reported in patent US20140242093A1, “METHODS AND COMPOSITIONS FOR MODULATING THE INNATE IMMUNE RESPONSE AND/OR MYOGENESIS IN A MAMMALIAN SUBJECT” (FRED HUTCHINSON CANCER RESEARCH CENTER, priority 2011, published 2014).

Tested on: control human primary myoblasts
Test: Expression microarray of primary myoblasts transduced with lentivirus carrying DUX4-fl, DUX4-s or GFP
Method: Primary human myoblasts were collected and cultured as previously described (Snider et al., 2010). Primary myoblasts were maintained at or below 70% confluency for proliferation. For differentiation, cells were allowed to reach 95-100% confluency in growth medium. Once confluency was reached, the cells were changed to differentiation medium (F10 media supplemented with 1% horse serum, 10 μg/mL insulin, and 10 μg/mL transferrin, penicillin/streptomycin) and maintained for 4 days. Human RD cells were grown in DMEM in 10% bovine calf serum (Hyclone) and penicillin/streptomycin. The primary myoblasts were transduced with lentivirus carrying DUX-fl, DUX4- or GFP (MOI=15).
Expression microarrays were performed on the transduced cells at 24 hours after transduction as follows. […] Samples were analyzed by Illumina Human Whole Genome microarrays. Probe intensities were corrected, normalized, and summarized by the Lumi package of Bioconductor (Du et al., 2008). Differentially expressed genes were identified by the LIMMA package of Bioconductor (Wettenhall and Smyth, 2004). Gene set enrichment analysis (GSEA) was performed using the Bioconductor GOstats package (Falcon and Gentleman, 2007).

B1: DUX4-s: short splice form of DUX4 (SEQ ID NO:112), keeps the double-homeobox domains, lacks the C-terminal activation domain (protein, listed as Homo sapiens)
chain: MALPTPSDSTLPAEARGRGRRRRLVWTPSQSEALRACFERNPYPGIATRERLAQAIGIPEPRVQIWFQNERSRQLRQHRRESRPWPGRRGPPEGRRKRTAVTGSQTALLLRAFEKDRFPGIAAREELARETGLPESRIQIWFQNRRARHPGQGGRAPAQV
PRAMEF19 expression fc (Refseq NM_001099790.1): −0.03732 | PRAMEF20 expression fc (Refseq NM_001099852.1): −0.003632 | PRAMEF14 expression fc (Refseq NM_001099854.1): −0.1694 | PRAMEF21 expression fc (Refseq NM_001100114.1): −0.06827 | LOC729384 expression fc (Refseq NM_001105522.1): −0.07068 | KHDC1L expression fc (Refseq NM_001126063.2): −0.07068 | CSAG3 expression fc (Refseq NM_001129826.1): 0.09074 | LOC399940 expression fc (Refseq NM_001136118.1): −0.03724 | LOC440563 expression fc (Refseq NM_001136561.1): 0.07051 | FAM90A7 expression fc (Refseq NM_001136572.1): −0.2137 | CYCSL1 expression fc (Refseq NR_001561.1): 0.3733 | MGC10997 expression fc (Refseq NR_001565.1): −0.2936 | FTHL3 expression fc (Refseq NR_002201.1, cultured human skeletal muscle): 0.4498 | FTHL11 expression fc (Refseq NR_002204.1, cultured human skeletal muscle): 0.6004 | FTHL12 expression fc (Refseq NR_002205.1, cultured human skeletal muscle): 0.3871 | RPPH1 expression fc (Refseq NR_002312.1): 0.2269 | RFPL1S expression fc (Refseq NR_002727.1): 0.1147 | SNORD56 expression fc (Refseq NR_002739.1): −0.1657 | fc of TRIM78P (expression array) (Refseq NR_002777.2): 1.698 | HNRPA1L-2 expression fc (Refseq NR_002944.2): −0.898 | RMRP expression fc (Refseq NR_003051.2): 0.07334 | fc of LOC400759 (expression array) (Refseq NR_003133.1): 1.032 | HNRPDL expression fc (Refseq NR_003249.1): 0.01689 | SDHALP1 expression fc (Refseq NR_003264.1): 0.1225 | RN5S9 expression fc (Refseq NR_023371.1): 0.7616 | KIAA0114 expression fc (Refseq NR_024031.1): −0.316 | NCRNA00092 expression fc (Refseq NR_024129.1): −0.1123 | MIR503 expression fc (Refseq NR_030228.1): −0.1361 | MIR2278 expression fc (Refseq NR_031755.1): 0.09768 | USP41 fc (Refseq XM_036729.5): 0.5246 | TRIM64 expression fc (Refseq XM_061890.11): −0.174 | LOC136157 expression fc (Refseq XM_069743.3): 0.05271 | LOC196120 expression fc (Refseq XM_114987.3): 0.05191 | LOC646066 expression fc (Refseq XM_116384.2): −0.02686 | LOC284428 expression fc (Refseq XM_208203.5): −0.09941 | LOC285697 expression fc (Refseq XM_210642.1): −0.06561 | LOC342934 expression fc (Refseq XM_292724.5): −0.06005 | LOC340096 expression fc (Refseq XM_293943.2): −0.07893 | LOC389633 expression fc (Refseq XM_372030.4): −0.0852 | LOC390031 expression fc (Refseq XM_372343.1): −0.1097 | LOC390530 fc (Refseq XM_372543.2): 0.1083 | LOC391045 expression fc (Refseq XM_372780.3): 0.3531 | LOC391092 expression fc (Refseq XM_372792.2): 0.1107 | LOC391742 expression fc (Refseq XM_373056.1): 0.1596 | LOC391747 expression fc (Refseq XM_373059.2): −0.1049 | LOC391761 expression fc (Refseq XM_373073.2): −0.05894 | LOC391764 expression fc (Refseq XM_373076.3): 0.1211 | LOC391766 expression fc (Refseq XM_373077.2): −0.05537 | LOC391767 expression fc (Refseq XM_373078.1): 0.05542 | LOC399937 expression fc (Refseq XM_374917.3): 0.0007914 | LOC399939 expression fc (Refseq XM_374919.3): −0.06731 | LOC401860 expression fc (Refseq XM_377445.3): −0.1342 | LOC402199 expression fc (Refseq XM_377875.2): 0.0817 | LOC646103 expression fc (Refseq XM_377879.3): −0.1387 | LOC402207 expression fc (Refseq XM_377884.2): −0.01834 | LOC440040 expression fc (Refseq XM_495873.4): 0.08128 | FAM90A9 expression fc (Refseq XM_496956.4): 0.01693 | FAM90A12 expression fc (Refseq XM_496961.3): 0.04824 | LOC441584 expression fc (Refseq XM_497258.1): −0.1442 | LOC441019 expression fc (Refseq XM_498969.2, cultured human skeletal muscle): 0.2625 | PEG10 expression fc (Refseq XM_499343.2): −0.09718 | LOC642362 expression fc (Refseq XM_925891.1): −0.0147 | LOC642538 expression fc (Refseq XM_926027.2): 0.1258 | LOC653111 expression fc (Refseq XM_926073.2): −0.09966 | LOC642843 expression fc (Refseq XM_926241.2): −0.05848 | LOC653192 expression fc (Refseq XM_926437.2): −0.03932 | LOC653194 expression fc (Refseq XM_926449.1): −0.01762 | LOC643731 expression fc (Refseq XM_927019.1): −0.0009314 | LOC653506 fc (Refseq XM_927769.1): 0.01748 | LOC645137 expression fc (Refseq XM_928167.2): −0.1524 | fc of LOC653583 (expression array) (Refseq XM_928224.2): 0.1005 | LOC645373 expression fc (Refseq XM_928412.1): −0.06602 | LOC645558 expression fc (Refseq XM_928577.2): −0.04868 | LOC645669 expression fc (Refseq XM_928680.1): 0.08754 | LOC653656 expression fc (Refseq XM_928688.3): −0.1419 | LOC653657 expression fc (Refseq XM_928697.2): 0.186 | LOC646698 expression fc (Refseq XM_929644.2): 0.1105 | LOC646754 expression fc (Refseq XM_929704.2): −0.1486 | LOC646914 expression fc (Refseq XM_929877.1): −0.02473 | fc of LOC338758 (expression array) (Refseq XM_931359.2): −0.07166 | LOC644739 fc (Refseq XM_933679.1): −0.07399 | LOC642127 expression fc (Refseq XM_936272.2): 0.04199 | LOC642219 expression fc (Refseq XM_936370.2): 4.39E−05 | LOC285299 expression fc (Refseq XM_936463.2): −0.03458 | fc of BEXL1 (expression array) (Refseq XM_936467.2): −0.1528 | LOC653978 expression fc (Refseq XM_937424.1): 0.1928 | LOC646508 expression fc (Refseq XM_937570.1): −0.04201 | LOC648533 expression fc (Refseq XM_937587.1): 0.03736 | LOC342933 expression fc (Refseq XM_938208.2): −0.1021 | PRAMEF17 expression fc (Refseq XM_938420.2): 0.1008 | fc of LOC649425 (expression array) (Refseq XM_938508.1): 2.539 | LOC649563 expression fc (Refseq XM_938635.2): −0.06114 | LOC650167 expression fc (Refseq XM_939249.1): 0.04811 | LOC654101 expression fc (Refseq XM_939354.1): 0.09479 | MGC61598 expression fc (Refseq XM_939432.1): 0.09581 | LOC651308 expression fc (Refseq XM_940443.1): 0.03906 | ZC3H5 fc (Refseq XM_940903.2): 0.09652 | LOC651816 expression fc (Refseq XM_941060.1): −0.5388 | LOC652080 expression fc (Refseq XM_941404.1): 0.1734 | LOC652349 expression fc (Refseq XM_941777.1): 0.01696 | LOC652433 expression fc (Refseq XM_941875.1): −0.03197 | LOC651390 expression fc (Refseq XM_942401.1): −0.07746 | LOC727846 expression fc (Refseq XM_001126140.1): 0.003662 | LOC730278 fc (Refseq XM_001126471.1): 0.1899 | PARP10 expression fc (Refseq XM_001127571.1, cultured human skeletal muscle): 0.5424 | fc of LOC730996 (expression array) (Refseq XM_001128017.1): 1.049 | LOC342900 expression fc (Refseq XM_001129035.1): 0.1315 | LOC729368 expression fc (Refseq XM_001130065.2): −0.06002 | LOC729458 expression fc (Refseq XM_001130308.2): 0.008126 | LOC729694 expression fc (Refseq XM_001131061.1): −0.1655 | LOC729698 expression fc (Refseq XM_001131072.1): −0.06572 | LOC729700 expression fc (Refseq XM_001131081.1): −0.184 | LOC729706 expression fc (Refseq XM_001131091.1): −0.01626 | LOC729724 expression fc (Refseq XM_001131132.1): 0.1112 | LOC729731 expression fc (Refseq XM_001131140.1): 0.09881 | LOC728450 expression fc (Refseq XM_001131473.2): 0.1347 | RFNG fc (Refseq XM_001132711.1): −0.2183 | LOC732416 expression fc (Refseq XM_001133386.1): 0.05578 | THOC4 expression fc (Refseq XM_001134346.1): −0.1896 | PRAMEF15 expression fc (Refseq XM_001713659.1): −0.05867 | LOC100131392 expression fc (Refseq XM_001713681.1): −0.007104 | LOC100132564 expression fc (Refseq XM_001713808.1): 0.401 | LOC391769 expression fc (Refseq XM_001713901.1): 0.152 | PRAMEF13 expression fc (Refseq XM_001713933.1): 0.1179 | PRAMEF11 expression fc (Refseq XM_001714028.1): 0.1217 | fc of LOC285296 (expression array) (Refseq XM_001714301.1): 0.8246 | LOC100133588 expression fc (Refseq XM_001714755.1): 0.03978 | CTGLF7 expression fc (Refseq XM_001714786.1): −0.2949 | LOC100129630 expression fc (Refseq XM_001714940.1): −0.1038 | LOC391763 expression fc (Refseq XM_001715080.1): 0.09287 | LOC642446 expression fc (Refseq XM_001717781.1): 0.1879 | LOC100133446 expression fc (Refseq XM_001717965.1): 0.1161 | LOC100129165 fc (Refseq XM_001718314.1): 0.2245 | LOC643336 expression fc (Refseq XM_001718563.1): 1.023 | LOC100129053 expression fc (Refseq XM_001718702.1): 0.09951 | LOC100130652 expression fc (Refseq XM_001719052.1): 0.105 | RFPL4A expression fc (Refseq XM_001719234.1): −0.09032 | LOC728809 fc (Refseq XM_001719546.1): 0.02213 | LOC100134199 expression fc (Refseq XM_001719549.1): 0.03252
